# From US9650414B1, “Dual-action EP4 agonist—bisphosphonate conjugates and uses thereof” (Simon Fraser University, priority 2014, dated 2017)
# How the values were obtained:
# rat Cathepsin K = target: T1, rat Cathepsin K (Rattus norvegicus, UniProt O35186); test: Cathepsin K assay, hydrolysis of conjugates by rat Cathepsin K; type: biochemical; details: conjugate 100 uM, CatK 0.2 uM, pH 5.5, 37 C
# T1 construct: Merck (gift); host or cells: E. coli
# T1 sequence (O35186 115-329): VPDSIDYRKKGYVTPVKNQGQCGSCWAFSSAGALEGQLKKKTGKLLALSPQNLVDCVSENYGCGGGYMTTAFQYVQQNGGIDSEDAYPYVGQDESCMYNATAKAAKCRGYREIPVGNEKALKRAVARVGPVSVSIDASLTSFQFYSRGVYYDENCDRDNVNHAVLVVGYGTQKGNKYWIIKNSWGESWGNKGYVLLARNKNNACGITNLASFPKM
# Method: (§1) Cathepsin K rat (recombinant, expressed in E. coli) was obtained from Merck as a gift. […] Enzyme activity was assayed using the Cathepsin K standard substrate Z-Leu-Arg-AMC. […] The appearances of released self-immolative linker 4-aminobenyl alcohol were recorded.
# human Cathepsin K = target: T2, human Cathepsin K (Homo sapiens, UniProt P43235); test: Cathepsin K assay, hydrolysis of conjugates by human Cathepsin K; type: biochemical; details: conjugate 100 uM, CatK 0.2 uM, pH 5.5, 37 C
# T2 construct: purchased Sigma-Aldrich; host or cells: E. coli
# T2 sequence (P43235 115-329): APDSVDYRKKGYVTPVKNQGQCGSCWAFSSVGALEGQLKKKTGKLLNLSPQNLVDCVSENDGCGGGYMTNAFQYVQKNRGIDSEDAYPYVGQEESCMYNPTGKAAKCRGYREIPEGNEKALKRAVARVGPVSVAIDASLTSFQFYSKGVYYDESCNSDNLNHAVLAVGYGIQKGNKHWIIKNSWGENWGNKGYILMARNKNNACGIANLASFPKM
# Method: as §1
# [1] = Rat organ distribution, uptake and release of conjugate 17a in rat bone; type: in vivo
# Method: (§2) Female Sprague Dawley rats (Charles River) were about 13 weeks old when received. They were acclimatized to the facility and operators, and were randomly divided to five groups: 6 hour, 1-, 7, 14 and -28 day. Dose: [^3H]-17a: 8.90 μCi/rat, [^14C]-17a 1.77 uCi/rat, and 17a 5.0 mg/kg. Formulation: conjugate 17a was suspended in Poloxamer 188 solution 10%, and adjusted to pH 8.0 by NaHCO3, then diluted by equal volume of PBS. The dosing was done with a fixed volume of 500 μL. The bolus injection and blood sampling were done via the tail vein. […] Long bones were harvested and counted.
# After 6 h, 1, 7, 14, 28 days three animals were weighed, sacrificed by CO2 and blood, fat, muscle, brain, heart, kidney, spleen, liver and bone were dissected and cleaned free of any loose tissue. The amount of radioactivity was determined by incineration in a R. J. Harvey OX300 Biological Oxidizer. The percent of the compound retained in the skeleton and the other organs at each time point was calculated by measuring activity per gram (μCi/g) in the collected samples and extrapolating to total activity retained in the skeleton and the other organs, the weight of skeleton was calculated by 8% of the body weight, the weight of the other organs was measured by balance. […] Table 3 and FIGS. 7A-E show rat organ distribution, uptake and release of a representative conjugate compound 17a.
# [2] = Analysis of the blood samples, level of tritiated 17a in blood; type: in vivo; details: rat, tail vein bolus, [3H]-17a
# Method: as §2
# Three Female Sprague Dawley rats (Charles River) were about 23 weeks old when received. They were acclimatized to the facility and operators. Dose: [^3H]-17a: 31.0 μCi/rat. Blood samples (0.5 mL per time point per rat) were taken from the 6-hour group of rats 0.5, 1, 2, 4, 6 hour and placed in heparinized micro-centrifuge tubes. Blood samples from the (500 μL) were centrifuged at ˜5000×G until plasma had separated. 100 μL of the supernatant was analyzed in a Harvey OX-300 biological oxidizer using the four-minute program. The collected scintillation mixture was counted on a Beckman Coulter LS-6500 scintillation counter. The counting time was two minute.
structure (smiles),measurement,setting,value
CC(C)C[C@H](NC(=O)OCc1ccccc1)C(=O)N[C@@H](CCCNC(=N)N)C(=O)Nc1ccc(COC(=O)NCCCC(O)(P(=O)(O)O)P(=O)(O)O)cc1 [Compound 7],hydrolysis by Rat CatK,rat Cathepsin K; 1 hour,73%
same,hydrolysis by Rat CatK,rat Cathepsin K; 2 hour,80%
same,hydrolysis by Rat CatK,rat Cathepsin K; 20 hour,95%
same,hydrolysis by Hum CatK,human Cathepsin K; 1 hour,66%
same,hydrolysis by Hum CatK,human Cathepsin K; 2 hour,75%
same,hydrolysis by Hum CatK,human Cathepsin K; 3 hour,79 (3 hour) %
"N=C(N)NCCC[C@H](NC(=O)[C@@H]1CCCN1C(=O)CNC(=O)OCc1ccccc1)C(=O)Nc1ccc(COC(=O)NCCCC(O)(P(=O)(O)O)P(=O)(O)O)cc1 [Compound 8, (4-((((4-((S)-2-((S)-1-(((benzyloxy)carbonyl)glycyl)pyrrolidine-2-carboxamido)-5-guanidinopentanamido)benzyl)oxy)carbonyl)amino)-1-hydroxybutane-1,1-diyl)bis(phosphonic acid)]",hydrolysis by Rat CatK,rat Cathepsin K; 1 hour,11%
same,hydrolysis by Rat CatK,rat Cathepsin K; 2 hour,20%
same,hydrolysis by Rat CatK,rat Cathepsin K; 20 hour,80%
same,hydrolysis by Hum CatK,human Cathepsin K; 1 hour,91%
same,hydrolysis by Hum CatK,human Cathepsin K; 2 hour,100%
"CCOC(=O)CCCCCCN1C(=O)CC[C@@H]1/C=C/[C@@H](OC(=O)Cc1ccc(COC(=O)N[C@@H](CC(C)C)C(=O)N[C@@H](CCCNC(=N)N)C(=O)Nc2ccc(COC(=O)NCCCC(O)(P(=O)(O)O)P(=O)(O)O)cc2)cc1)C(F)(F)c1ccccc1 [Compound 17a, (4-((((4-((S)-2-((S)-2-((((4-(2-(((R,E)-4-((R)-1-(7-ethoxy-7-oxoheptyl)-5-oxopyrrolidin-2-yl)-1,1-difluoro-1-phenylbut-3-en-2-yl)oxy)-2-oxoethyl)benzyl)oxy)carbonyl)amino)-4-methylpentanamido)-5-guanidinopentanamido)benzyl)oxy)carbonyl)amino)-1-hydroxybutane-1,1-diyl)bis(phosphonic acid)]",behavior or reaction of dosed animals,"[1]; 17a 5.0 mg/kg, tail vein bolus",no unusual behavior or reaction to the drug treatment
same,distribution of radio-activity,[1]; at 6 hours,most radio-activity was observed in liver and bones
same,uptake,[1]; by 3H,2%
same,uptake,[1]; by 14C,~5%
same,distribution of radio-activity,[1]; by 7 days,only bones had a significant amount of radio-activity
same,Percentage of dose in Bone,"[1]; tail vein bolus, 3H, 1-day",2.12%
same,Percentage of dose in Brain,"[1]; tail vein bolus, 3H, 1-day",0.025%
same,Percentage of dose in Heart,"[1]; tail vein bolus, 3H, 1-day",0.021%
same,Percentage of dose in Kidney,"[1]; tail vein bolus, 3H, 1-day",0.11%
same,Percentage of dose in Liver,"[1]; tail vein bolus, 3H, 1-day",2.33%
same,Percentage of dose in Spleen,"[1]; tail vein bolus, 3H, 1-day",0.22%
same,Percentage of dose in Bone,"[1]; tail vein bolus, 3H, 6-hour",2.10%
same,Percentage of dose in Brain,"[1]; tail vein bolus, 3H, 6-hour",0.022%
same,Percentage of dose in Heart,"[1]; tail vein bolus, 3H, 6-hour",0.025%
same,Percentage of dose in Kidney,"[1]; tail vein bolus, 3H, 6-hour",0.21%
same,Percentage of dose in Liver,"[1]; tail vein bolus, 3H, 6-hour",8.95%
same,Percentage of dose in Spleen,"[1]; tail vein bolus, 3H, 6-hour",0.35%
same,Percentage of dose in Bone,"[1]; tail vein bolus, 3H, 7-day",1.30%
same,Percentage of dose in Brain,"[1]; tail vein bolus, 3H, 7-day",LOD
same,Percentage of dose in Heart,"[1]; tail vein bolus, 3H, 7-day",0.014%
same,Percentage of dose in Kidney,"[1]; tail vein bolus, 3H, 7-day",0.053%
same,Percentage of dose in Liver,"[1]; tail vein bolus, 3H, 7-day",0.48%
same,Percentage of dose in Spleen,"[1]; tail vein bolus, 3H, 7-day",0.076%
same,Percentage of dose in Bone,"[1]; tail vein bolus, 3H, 14-day",0.80%
same,Percentage of dose in Brain,"[1]; tail vein bolus, 3H, 14-day",LOD
same,Percentage of dose in Heart,"[1]; tail vein bolus, 3H, 14-day",LOD
same,Percentage of dose in Kidney,"[1]; tail vein bolus, 3H, 14-day",0.026%
same,Percentage of dose in Liver,"[1]; tail vein bolus, 3H, 14-day",0.30%
same,Percentage of dose in Spleen,"[1]; tail vein bolus, 3H, 14-day",0.039%
same,Percentage of dose in Bone,"[1]; tail vein bolus, 3H, 28-day",0.74%
same,Percentage of dose in Brain,"[1]; tail vein bolus, 3H, 28-day",LOD
same,Percentage of dose in Heart,"[1]; tail vein bolus, 3H, 28-day",LOD
same,Percentage of dose in Kidney,"[1]; tail vein bolus, 3H, 28-day",0.017%
same,Percentage of dose in Liver,"[1]; tail vein bolus, 3H, 28-day",0.08%
same,Percentage of dose in Spleen,"[1]; tail vein bolus, 3H, 28-day",0.037%
same,Percentage of dose in Bone,"[1]; tail vein bolus, 14C, 1-day",4.63%
same,Percentage of dose in Brain,"[1]; tail vein bolus, 14C, 1-day",0.012%
same,Percentage of dose in Heart,"[1]; tail vein bolus, 14C, 1-day",0.009%
same,Percentage of dose in Kidney,"[1]; tail vein bolus, 14C, 1-day",0.047%
same,Percentage of dose in Liver,"[1]; tail vein bolus, 14C, 1-day",2.50%
same,Percentage of dose in Spleen,"[1]; tail vein bolus, 14C, 1-day",0.23%
same,Percentage of dose in Bone,"[1]; tail vein bolus, 14C, 6-hour",5.52%
same,Percentage of dose in Brain,"[1]; tail vein bolus, 14C, 6-hour",0.014%
same,Percentage of dose in Heart,"[1]; tail vein bolus, 14C, 6-hour",0.017%
same,Percentage of dose in Kidney,"[1]; tail vein bolus, 14C, 6-hour",0.11%
same,Percentage of dose in Liver,"[1]; tail vein bolus, 14C, 6-hour",7.03%
same,Percentage of dose in Spleen,"[1]; tail vein bolus, 14C, 6-hour",0.34%
same,Percentage of dose in Bone,"[1]; tail vein bolus, 14C, 7-day",3.51%
same,Percentage of dose in Brain,"[1]; tail vein bolus, 14C, 7-day",LOD
same,Percentage of dose in Heart,"[1]; tail vein bolus, 14C, 7-day",LOD
same,Percentage of dose in Kidney,"[1]; tail vein bolus, 14C, 7-day",0.020%
same,Percentage of dose in Liver,"[1]; tail vein bolus, 14C, 7-day",0.61%
same,Percentage of dose in Spleen,"[1]; tail vein bolus, 14C, 7-day",0.086%
same,Percentage of dose in Bone,"[1]; tail vein bolus, 14C, 14-day",2.52%
same,Percentage of dose in Brain,"[1]; tail vein bolus, 14C, 14-day",LOD
same,Percentage of dose in Heart,"[1]; tail vein bolus, 14C, 14-day",LOD
same,Percentage of dose in Kidney,"[1]; tail vein bolus, 14C, 14-day",0.013%
same,Percentage of dose in Liver,"[1]; tail vein bolus, 14C, 14-day",0.27%
same,Percentage of dose in Spleen,"[1]; tail vein bolus, 14C, 14-day",0.050%
same,Percentage of dose in Bone,"[1]; tail vein bolus, 14C, 28-day",2.44%
same,Percentage of dose in Brain,"[1]; tail vein bolus, 14C, 28-day",LOD
same,Percentage of dose in Heart,"[1]; tail vein bolus, 14C, 28-day",LOD
same,Percentage of dose in Kidney,"[1]; tail vein bolus, 14C, 28-day",0.0092%
same,Percentage of dose in Liver,"[1]; tail vein bolus, 14C, 28-day",0.10%
same,Percentage of dose in Spleen,"[1]; tail vein bolus, 14C, 28-day",0.039%
same,"clearance from circulating blood, t1/2",[2],~30 min
"N=C(N)NCCC[C@H](NC(=O)[C@@H]1CCCN1C(=O)OCc1ccccc1)C(=O)Nc1ccc(COC(=O)NCCCC(O)(P(=O)(O)O)P(=O)(O)O)cc1 [Compound 6, (4-((((4-((S)-2-((S)-1-((benzyloxy)carbonyl)pyrrolidine-2-carboxamido)-5-guanidinopentanamido)benzyl)oxy)carbonyl)amino)-1-hydroxybutane-1,1-diyl)bis(phosphonic acid)]",hydrolysis by Rat CatK,rat Cathepsin K; 1 hour,5%
same,hydrolysis by Rat CatK,rat Cathepsin K; 2 hour,10%
same,hydrolysis by Rat CatK,rat Cathepsin K; 20 hour,52%
same,hydrolysis by Hum CatK,human Cathepsin K; 1 hour,90%
same,hydrolysis by Hum CatK,human Cathepsin K; 2 hour,98%
